In ChEMBL document CHEMBL1128147, “Mechanistic support for the stepwise process for inactivation of class A -lactamases by clavulanate” (Bioorg Med Chem Lett, 1995) one finds Km data, which are given here for one protein.

Substrate in this series: O=C(O)[C@H]1C(CCO)O[C@@H]2CC(=O)N21

Description: Km for inactivation of TEM-1 beta-lactamase

B1: Beta-lactamase (Enterobacter cloacae), P05364 (protein)
chain: MMRKSLCCALLLGISCSALATPVSEKQLAEVVANTITPLMKAQSVPGMAVAVIYQGKPHYYTFGKADIAANKPVTPQTLFELGSISKTFTGVLGGDAIARGEISLDDAVTRYWPQLTGKQWQGIRMLDLATYTAGGLPLQVPDEVTDNASLLRFYQNWQPQWKPGTTRLYANASIGLFGALAVKPSGMPYEQAMTTRVLKPLKLDHTWINVPKAEEAHYAWGYRDGKAVRVSPGMLDAQAYGVKTNVQDMANWVMANMAPENVADASLKQGIALAQSRYWRIGSMYQGLGWEMLNWPVEANTVVEGSDSKVALAPLPVAEVNPPAPPVKASWVHKTGSTGGFGSYVAFIPEKQIGIVMLANTSYPNPARVEAAYHILEALQ
As a reminder, the Km is the substrate concentration at which the rate is half of its maximum. With B1, the Km stood at 2.2 µM.
